How the values were obtained:
Assay in all cases: flow cytometry on transiently transfected cells
[1] = molecular target: T1, DR4 on transiently transfected cells (UniProt O00220 24-468, limits assumed)
T1 construct: whole, on cells
T1 sequence (looked up): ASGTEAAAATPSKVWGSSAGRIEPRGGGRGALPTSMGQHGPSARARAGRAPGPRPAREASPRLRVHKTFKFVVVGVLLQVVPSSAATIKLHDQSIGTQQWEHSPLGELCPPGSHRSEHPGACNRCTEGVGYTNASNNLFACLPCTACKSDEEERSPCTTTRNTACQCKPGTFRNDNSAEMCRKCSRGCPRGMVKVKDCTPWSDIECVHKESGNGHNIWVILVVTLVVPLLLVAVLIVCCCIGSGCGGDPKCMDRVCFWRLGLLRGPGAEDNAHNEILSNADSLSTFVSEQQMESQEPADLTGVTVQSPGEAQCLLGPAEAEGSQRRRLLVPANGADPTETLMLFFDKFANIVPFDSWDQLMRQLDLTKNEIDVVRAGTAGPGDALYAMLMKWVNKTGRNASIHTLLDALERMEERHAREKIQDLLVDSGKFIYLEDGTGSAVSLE
Protocol: (§1) One million cells, in 0.1 ml of FACS buffer (PBS, 0.1% BSA, 0.1% NaN₃), were incubated with 0.1-1 microgram of protein or antibody at RT for 15 min. The cells were washed with 3 ml of FACS buffer, reacted with biotinylated primary antibody, and stained with PE-conjugated secondary antibody at RT for 15 min. Cells were then washed again, resuspended in 0.5 microgram/ml of propidium iodide, and live cells were gated and analyzed on a FACScan using the CellQuest software (BD Biosciences).

[2] = molecular target: T2, DcR2 on transiently transfected cells (UniProt Q9UBN6 56-386, limits assumed)
T2 construct: whole, on cells
T2 sequence (looked up): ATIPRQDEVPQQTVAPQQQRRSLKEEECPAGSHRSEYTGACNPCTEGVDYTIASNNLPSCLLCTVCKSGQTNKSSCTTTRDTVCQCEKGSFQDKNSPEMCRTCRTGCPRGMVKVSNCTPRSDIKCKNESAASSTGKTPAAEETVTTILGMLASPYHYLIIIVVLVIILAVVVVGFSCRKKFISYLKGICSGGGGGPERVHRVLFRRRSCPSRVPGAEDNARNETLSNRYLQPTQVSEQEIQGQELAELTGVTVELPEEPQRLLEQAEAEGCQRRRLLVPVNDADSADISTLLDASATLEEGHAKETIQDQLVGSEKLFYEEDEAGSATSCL
Protocol: as §1

[3] = molecular target: T3, RANK on transiently transfected cells (UniProt Q9Y6Q6 30-616, limits assumed)
T3 construct: whole, on cells
T3 sequence (looked up): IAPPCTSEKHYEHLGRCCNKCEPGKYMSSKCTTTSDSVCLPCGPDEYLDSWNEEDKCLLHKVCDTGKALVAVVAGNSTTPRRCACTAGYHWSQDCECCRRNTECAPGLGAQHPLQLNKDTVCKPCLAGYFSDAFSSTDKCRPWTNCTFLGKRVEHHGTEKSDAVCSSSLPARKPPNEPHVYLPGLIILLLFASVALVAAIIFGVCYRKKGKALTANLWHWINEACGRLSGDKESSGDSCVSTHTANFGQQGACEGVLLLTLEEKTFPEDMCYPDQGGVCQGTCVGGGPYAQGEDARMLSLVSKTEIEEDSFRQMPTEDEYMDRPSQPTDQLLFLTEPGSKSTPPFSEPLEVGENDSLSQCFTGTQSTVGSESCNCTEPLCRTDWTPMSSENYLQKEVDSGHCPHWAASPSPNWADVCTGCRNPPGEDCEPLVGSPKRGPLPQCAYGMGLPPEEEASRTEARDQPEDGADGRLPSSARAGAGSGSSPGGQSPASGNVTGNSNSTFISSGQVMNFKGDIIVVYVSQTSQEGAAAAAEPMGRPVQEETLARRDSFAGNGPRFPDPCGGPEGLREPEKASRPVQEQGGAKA
Protocol: as §1

[4] = molecular target: T4, CD30 on transiently transfected cells (UniProt P28908 19-595, limits assumed)
T4 construct: whole, on cells
T4 sequence (looked up): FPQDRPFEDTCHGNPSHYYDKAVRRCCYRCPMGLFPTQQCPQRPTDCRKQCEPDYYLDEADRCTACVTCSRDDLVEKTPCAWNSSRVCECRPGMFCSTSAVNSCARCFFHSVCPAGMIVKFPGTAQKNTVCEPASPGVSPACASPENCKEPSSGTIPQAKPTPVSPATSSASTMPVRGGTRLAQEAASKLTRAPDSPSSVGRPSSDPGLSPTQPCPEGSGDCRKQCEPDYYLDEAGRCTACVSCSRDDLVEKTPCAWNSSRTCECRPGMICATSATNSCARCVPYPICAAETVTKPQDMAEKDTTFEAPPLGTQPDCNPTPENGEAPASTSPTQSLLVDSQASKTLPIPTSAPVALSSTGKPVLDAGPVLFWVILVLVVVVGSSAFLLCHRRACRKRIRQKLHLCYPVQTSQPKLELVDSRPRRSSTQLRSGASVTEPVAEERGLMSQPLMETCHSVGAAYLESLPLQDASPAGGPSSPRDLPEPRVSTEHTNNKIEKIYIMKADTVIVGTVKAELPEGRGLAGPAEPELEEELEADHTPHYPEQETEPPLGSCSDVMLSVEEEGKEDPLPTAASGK
Protocol: as §1

Measured: binding result

B1: FLAG-tagged soluble TNF-gamma-beta (aa 72-251) (ligand, human)
chain: DYKDDDDKLKGQEFAPSHQQVYAPLRADGDKPRAHLTVVRQTPTQHFKNQFPALHWEHELGLAFTKNRMNYTNKFLLIPESGDYFIYSQVTFRGMTSECSEIRQAGRPNKPDSITVVITKVTDSYPEPTQLLMGTKSVCEVGSNWFQPIYLGAMFSLQEGDKLMVNVSDISLVDYTKEDKTFFGAFLL
notes: also called FLAG-TNF-gamma-beta; FLAG-TL1β
no binding: [1] | [2] | [3] | [4]

From patent US20090226456A1 (published 2009)
